According to US11286293:
Several values for one entry are separate records, joined by “and”; a condition that tells them apart may be missing. Equal entries are not always repeated. Where two headings read alike, the source gives them in different places.

Assays:
Assay in all cases: SPR
[1] = molecular target: T1, Tissue factor (TF) extracellular domain (human, UniProt P13726)
T1 chain: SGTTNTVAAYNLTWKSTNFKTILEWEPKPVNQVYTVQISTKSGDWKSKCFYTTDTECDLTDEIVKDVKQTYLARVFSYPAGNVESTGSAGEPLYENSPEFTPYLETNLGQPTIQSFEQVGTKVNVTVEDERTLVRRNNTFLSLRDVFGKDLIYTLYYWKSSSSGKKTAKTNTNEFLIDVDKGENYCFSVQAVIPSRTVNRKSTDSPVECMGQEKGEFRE

[2] = molecular target: T1, Tissue factor (TF) extracellular domain
[3] = molecular target: T1, Tissue factor (TF) extracellular domain
[4] = molecular target: T1, Tissue factor (TF) extracellular domain

B1: D3H44 WT Fab (antibody)
chain 1: EVQLVESGGGLVQPGGSLRLSCAASGFNIKEYYMHWVRQAPGKGLEWVGLIDPEQGNTIYDPKFQDRATISADNSKNTAYLQMNSLRAEDTAVYYCAR
chain 2: DIQMTQSPSSLSASVGDRVTITCRASRDIKSYLNWYQQKPGKAPKVLIYYATSLAEGVPSRFSGSGSGTDYTLTISSLQPEDFATYYCLQHG
For B1, the Kd [1] was 0.056 nM, the Kd [2] was 0.06 nM and the Kd [3] was 0.052 nM. For the same binder, the Kd [4] was 0.0522 nM and 0.0622 nM.
